B1: Biphenyl 2,3-dioxygenase from Sphingobium yanoikuyae strain B1, terminal oxygenase α subunit (enzyme)
chain: MSSDATLVDTVNASQSRQVFWDEDVYALEIERIFSRAWLMLGHESLVPKPGDFITTYMAEDKVILSHQSDGTFRAFINSCSHRGNQICHADSGNAKAFVCNYHGWVFGQDGSLVDVPLESRCYHNSLDKQKLAAKSVRVETYKGFIFGCHDPEAPSLEDYLGEFRYYLDTIWEGAGGGMELLGPPMKSLLQCNWKVPAENFIGDGYHVGWTHAAALSQIGGELAGLAGNRADIPFDDLGLQFTTRHGHGFGVIDNAAAGLHIKREGWTKFLEDTRGEVRRKFGPERERLYLGHWNCSIFPNCSFLYGTNTFKIWHPRGPHEIEVWTYTIVPRDADPATKSMIQREAIRTFGTAGTLESDDGENMSSATYINRGVITRNGRMNSTMGVGYEGPHPVYPGIVGISFIGETSYRGFYRFWKEMIDAPDWASVKANDDTWDSVFPNRNFWNEKLNAAE
notes: α subunit of biphenyl 2,3-dioxygenase (BPDO-OB1), Sphingobium yanoikuyae B1, encoded by bphA1f; the α subunit consists of 454 residues; residues 6-454 modelled in the structure; Co-expressed with the β subunit (bphA1fA2f in one vector); also called BPDO-OB1 α subunit; source: cloned from B1 into pET101D, expressed as described in Yu et al. [45], purified
B2: Biphenyl 2,3-dioxygenase from Sphingobium yanoikuyae strain B1, terminal oxygenase β subunit (enzyme)
chain: MSSEQIPVTPDVHYDIEAHYRAEVRMFQTGQYREWLQGMVAEDIHYWMPIYEQRLTRDRRPDPTPDDAAIYNDDFGELKQRVERLYSGQVWMEDPPSKIRYFVSNVEAFEAGNGELDVLSNILVYRNRRQTEVTVHTLGREDKLRRDGNGFKVFRRKLILDARVTQDKNLYFFC
notes: β subunit of biphenyl 2,3-dioxygenase (BPDO-OB1), Sphingobium yanoikuyae B1, encoded by bphA2f; residues 5-174 modelled in the structure; Co-expressed with the α subunit (bphA1fA2f in one vector); also called BPDO-OB1 β subunit; source: cloned from B1 into pET101D, expressed as described in Yu et al. [45], purified

How the values were obtained:
[1] = biological target: the molecule itself; experiment: crystal structure; purified BPDO-OB1 at 20 mg/ml in 20 mM potassium phosphate pH 6.8; space group P3(1)21, complete α3β3 in the asymmetric unit; native (1.70 Å) and biphenyl-soaked crystals
[2] = biological target: B1; experiment: as above; settings: both partners purified

| binding result [2] | Binder | stoichiometry N [1] |
| --- | --- | --- |
| – | B1 | 3 |
| binds | B2 | 3 |

Source: PMC1847435, “Structural investigations of the ferredoxin and terminal oxygenase components of the biphenyl 2,3-dioxygenase from Sphingobium yanoikuyae B1” (BMC Structural Biology, 2007)
